Measured values reported in the supplement of paper PMC7125110.
± gives the standard error. For some assays here: Variants at the floor of the assay were thinned out.

B1: glmS ribozyme (parent)
chain: AUAAAAGCGCCAGAACUACAGAAAUGUAGUUGACGAGGAGGAGGUUUAUCGAAUUUUCGGCGGAUGCCUCCAAA

Assays:
Conditions in all cases: with glucosamine-6-phosphate
glucosamine-6-phosphate [1] = variants of: B1; assay: kcat; higher = faster cleavage; RNA array
How it was run: (§1)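 Tiles of sequenced MiSeq chips were imaged over ~14 h at 37 °C. On them, barcoded ribozyme variants had been transcribed in situ by E. coli RNA polymerase and were tracked via a hybridised Cy3 probe while glucosamine-6-phosphate (40 μM to 10 mM) in HEPES/KCl/Mg(OAc)2 buffer flowed in. Per-tile medians, normalised to baseline and to non-cleaving reference variants, were fit to one- or two-exponential decays for kobs, and weighted Michaelis–Menten fits gave kcat and KM.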

glucosamine-6-phosphate [2] = variants of: B1; assay: KM; higher = weaker cofactor use; RNA array
How it was run: as §1

glucosamine-6-phosphate [3] = variants of: B1; assay: self-cleavage kobs at 640 uM GlcN6P; higher = faster cleavage; RNA array
How it was run: as §1

glucosamine-6-phosphate [4] = variants of: B1; assay: self-cleavage kobs at 2500 uM GlcN6P; higher = faster cleavage; RNA array
How it was run: as §1

glucosamine-6-phosphate [5] = variants of: B1; assay: self-cleavage kobs at 10000 uM GlcN6P; higher = faster cleavage; RNA array
How it was run: as §1

glucosamine-6-phosphate [6] = variants of: B1; assay: self-cleavage kobs at 40 uM GlcN6P; higher = faster cleavage; RNA array
How it was run: as §1

glucosamine-6-phosphate [7] = variants of: B1; assay: self-cleavage kobs at 160 uM GlcN6P; higher = faster cleavage; RNA array
How it was run: as §1

| Variant | kcat (glucosamine-6-phosphate [1]) [s⁻¹] | KM (glucosamine-6-phosphate [2]) [µM] | self-cleavage kobs at 640 uM GlcN6P (glucosamine-6-phosphate [3]) [s⁻¹] | self-cleavage kobs at 2500 uM GlcN6P (glucosamine-6-phosphate [4]) [s⁻¹] | self-cleavage kobs at 10000 uM GlcN6P (glucosamine-6-phosphate [5]) [s⁻¹] | self-cleavage kobs at 40 uM GlcN6P (glucosamine-6-phosphate [6]) [s⁻¹] | self-cleavage kobs at 160 uM GlcN6P (glucosamine-6-phosphate [7]) [s⁻¹] |
| --- | --- | --- | --- | --- | --- | --- | --- |
| U47C C68G | 6.88e-05 ± 2.3e-06 | 573 ± 80 | 3.62e-05 ± 7.3e-06 | 5.33e-05 ± 1.1e-05 | 6.6e-05 ± 7.8e-06 |  |  |
| G13U A15C U54C | 0.000132 ± 1.2e-05 |  |  | 0.00013 ± 3.3e-05 | 0.000122 ± 1.9e-05 |  |  |
| C16U A33U | 0.000109 ± 1.2e-05 | 2420 ± 740 | 3.18e-05 ± 8.4e-06 | 5.09e-05 ± 6.2e-06 | 8.92e-05 ± 7.1e-06 |  |  |
| U46C C68U | 0.000934 ± 0.0002 | 1480 ± 580 | 0.000387 ± 6e-05 | 0.000933 ± 0.00014 | 0.000743 ± 7.7e-05 | 2.43e-05 ± 7.6e-06 | 7.49e-05 ± 1.3e-05 |
| C19A | 0.0165 ± 0.0045 | 610 ± 220 | 0.00758 ± 0.00099 | 0.011 ± 0.0021 | 0.0275 ± 0.0046 | 0.00101 ± 8.1e-05 | 0.00456 ± 0.00078 |
| A52U U54A | 0.000204 ± 9.2e-06 | 1670 ± 180 | 5.55e-05 ± 8.3e-06 | 0.000132 ± 2.1e-05 | 0.000172 ± 1.8e-05 |  |  |
| U31A U65G | 0.00228 ± 0.00054 | 2390 ± 1000 | 0.000521 ± 8.8e-05 | 0.000854 ± 0.00019 | 0.00205 ± 0.00027 | 3.37e-05 ± 1.5e-05 | 0.000211 ± 6.2e-05 |
| A14U G41U | 0.000307 ± 3.4e-05 | 1010 ± 220 | 0.000109 ± 1.4e-05 | 0.000292 ± 5.4e-05 | 0.000271 ± 3.1e-05 |  | 4.48e-05 ± 7.9e-06 |
| C67G U69C | 0.00123 ± 0.00012 | 958 ± 170 | 0.000506 ± 9.2e-05 | 0.00077 ± 0.00014 | 0.00127 ± 0.0002 | 5.09e-05 ± 1.4e-05 | 0.000179 ± 3.4e-05 |
| C50G U69G | 0.000141 ± 7.4e-06 |  | 0.000151 ± 2.4e-05 | 0.000126 ± 2e-05 | 0.000141 ± 1.5e-05 | 0.000135 ± 1.6e-05 | 0.000165 ± 3e-05 |
| C67U U69C | 0.000129 ± 6e-05 |  | 0.000113 ± 2e-05 | 4.99e-05 ± 2.3e-05 | 0.000226 ± 3.7e-05 |  | 4.3e-05 ± 2.1e-05 |
| A53C C71G | 0.00031 ± 7.7e-05 | 1290 ± 620 | 0.000101 ± 1.6e-05 | 0.000182 ± 3.4e-05 | 0.000335 ± 7.4e-05 |  | 4.25e-05 ± 1.8e-05 |
| G60C C68A | 1.32e-05 ± 4.3e-06 |  |  |  | < 1e-05 | < 1e-05 |  |
| A33C U54A | 0.00129 ± 0.00021 | 7810 ± 1700 | 9.44e-05 ± 1.2e-05 | 0.000323 ± 6.1e-05 | 0.000722 ± 0.0001 |  | 4.1e-05 ± 1.7e-05 |
| U54A U55A | 0.044 ± 0.016 | 1290 ± 540 |  |  | 0.0388 ± 0.0094 | 0.00147 ± 0.00017 | 0.00297 ± 0.001 |
| A36U U45A C50G | < 1e-05 |  | < 1e-05 | < 1e-05 |  |  |  |
| G13U A15G | 0.00265 ± 0.0011 |  | 0.000388 ± 7.5e-05 | 0.000584 ± 0.00014 | 0.00191 ± 0.00025 |  | 0.000116 ± 5e-05 |
| G29U A52U | 0.000123 ± 1.2e-05 | 4620 ± 1400 |  |  | 8.41e-05 ± 1e-05 |  |  |
| C10U C68G | 2.34e-05 ± 4.7e-06 |  |  | 2.5e-05 ± 7.6e-06 |  |  |  |
| A52U A53U | 0.000212 ± 8.7e-06 | 4210 ± 360 | 2.65e-05 ± 1e-05 | 8.03e-05 ± 1.2e-05 | 0.000148 ± 1.7e-05 | < 1e-05 |  |
| U56C U69C | 3.67e-05 ± 7.4e-06 |  |  |  | 3.13e-05 ± 1.3e-05 | < 1e-05 |  |
| A42G G51A | < 1e-05 |  |  |  | < 1e-05 | < 1e-05 |  |
| A15G A42U | 0.000248 ± 4.1e-05 | 1410 ± 570 | 6.62e-05 ± 1.7e-05 | 0.000216 ± 3.8e-05 | 0.000203 ± 3e-05 |  | 2.77e-05 ± 1.4e-05 |
| A33U C68U | 1.75e-05 ± 1.6e-06 |  |  |  |  | < 1e-05 |  |
| A14C G66C | 9.53e-05 ± 3.1e-06 | 2140 ± 260 |  | 5.12e-05 ± 1.5e-05 | 7.85e-05 ± 9.8e-06 |  |  |
| G44U U57G | < 1e-05 |  |  | < 1e-05 | < 1e-05 | < 1e-05 | < 1e-05 |
| A12U U57C | 0.00174 ± 0.00086 |  | 0.000217 ± 3.9e-05 | 0.000638 ± 0.00014 | 0.00126 ± 0.00038 | 6.27e-05 ± 2.3e-05 | 6.12e-05 ± 2.3e-05 |
| A14G A15U G40U | 0.00322 ± 0.00023 | 690 ± 78 | 0.00146 ± 0.00029 | 0.00279 ± 0.0008 | 0.00298 ± 0.00083 | 0.00018 ± 3.4e-05 |  |
| A15G U65A C71A | 0.000944 ± 0.0002 | 755 ± 320 | 0.000466 ± 5.6e-05 | 0.000535 ± 0.00018 | 0.000965 ± 0.00023 | 3.84e-05 ± 1.7e-05 |  |
| C10U G59U | 2.6e-05 ± 1.8e-06 | 2000 ± 700 |  |  | 2.16e-05 ± 1.1e-05 |  |  |
